# IntAct's records for PubMed 15105431
# B1: T-cell surface antigen CD2 (Homo sapiens), P06729 (parent)
# chain: MSFPCKFVASFLLIFNVSSKGAVSKEITNALETWGALGQDINLDIPSFQMSDDIDDIKWEKTSDKKKIAQFRKEKETFKEKDTYKLFKNGTLKIKHLKTDDQDIYKVSIYDTKGKNVLEKIFDLKIQERVSKPKISWTCINTTLTCEVMNGTDPELNLYQDGKHLKLSQRVITHKWTTSLSAKFKCTAGNKVSKESSVEPVSCPEKGLDIYLIIGICGGGSLLMVFVALLVFYITKRKKQRSRRNDEELETRAHRVATEERGRKPHQIPASTPQNPATSQHPPPPPGHRSQAPSHRPPPPGHRVQHQPQKRPPAPSGTQVHQQKGPPLPRPRVQPKPPHGAAENSLSPSSN
# partner: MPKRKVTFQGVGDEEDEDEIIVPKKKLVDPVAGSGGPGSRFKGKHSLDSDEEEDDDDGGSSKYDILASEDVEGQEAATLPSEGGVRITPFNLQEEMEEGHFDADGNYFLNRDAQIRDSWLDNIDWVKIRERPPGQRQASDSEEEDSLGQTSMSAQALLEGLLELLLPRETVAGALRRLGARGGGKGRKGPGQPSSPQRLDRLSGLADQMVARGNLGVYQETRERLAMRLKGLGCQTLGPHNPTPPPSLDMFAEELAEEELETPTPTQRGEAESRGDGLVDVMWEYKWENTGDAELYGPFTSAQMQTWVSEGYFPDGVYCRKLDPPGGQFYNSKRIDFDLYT
# Variants of: B1
# Settings: with cd2b2_human CD2BP2, O95400
row,Variant,effect of a mutation on the interaction
1,MSFPCKFVASFLLIFNVSSKGAVSKEITNALETWGALGQDINLDIPSFQMSDDIDDIKWEKTSDKKKIAQFRKEKETFKEKDTYKLFKNGTLKIKHLKTDDQDIYKVSIYDTKGKNVLEKIFDLKIQERVSKPKISWTCINTTLTCEVMNGTDPELNLYQDGKHLKLSQRVITHKWTTSLSAKFKCTAGNKVSKESSVEPVSCPEKGLDIYLIIGICGGGSLLMVFVALLVFYITKRKKQRSRRNDEELETRAHRVATEERGRKPHQIPASTPQNPATSQHPPPPPGHRSQAPSHRPPRPGHRVQHQPQKRPPAPSGTQVHQQKGPPLPRPRVQPKPPHGAAENSLSPSSN [P299R],disrupting interaction strength
2,MSFPCKFVASFLLIFNVSSKGAVSKEITNALETWGALGQDINLDIPSFQMSDDIDDIKWEKTSDKKKIAQFRKEKETFKEKDTYKLFKNGTLKIKHLKTDDQDIYKVSIYDTKGKNVLEKIFDLKIQERVSKPKISWTCINTTLTCEVMNGTDPELNLYQDGKHLKLSQRVITHKWTTSLSAKFKCTAGNKVSKESSVEPVSCPEKGLDIYLIIGICGGGSLLMVFVALLVFYITKRKKQRSRRNDEELETRAHRVATEERGRKPHQIPASTPQNPATSQHPPPPPGHRSQAPSHRPPNPGHRVQHQPQKRPPAPSGTQVHQQKGPPLPRPRVQPKPPHGAAENSLSPSSN [P299N],decreasing interaction strength
3,MSFPCKFVASFLLIFNVSSKGAVSKEITNALETWGALGQDINLDIPSFQMSDDIDDIKWEKTSDKKKIAQFRKEKETFKEKDTYKLFKNGTLKIKHLKTDDQDIYKVSIYDTKGKNVLEKIFDLKIQERVSKPKISWTCINTTLTCEVMNGTDPELNLYQDGKHLKLSQRVITHKWTTSLSAKFKCTAGNKVSKESSVEPVSCPEKGLDIYLIIGICGGGSLLMVFVALLVFYITKRKKQRSRRNDEELETRAHRVATEERGRKPHQIPASTPQNPATSQHPPPPPGHRSQAPSHRPPCPGHRVQHQPQKRPPAPSGTQVHQQKGPPLPRPRVQPKPPHGAAENSLSPSSN [P299C],decreasing interaction strength
4,MSFPCKFVASFLLIFNVSSKGAVSKEITNALETWGALGQDINLDIPSFQMSDDIDDIKWEKTSDKKKIAQFRKEKETFKEKDTYKLFKNGTLKIKHLKTDDQDIYKVSIYDTKGKNVLEKIFDLKIQERVSKPKISWTCINTTLTCEVMNGTDPELNLYQDGKHLKLSQRVITHKWTTSLSAKFKCTAGNKVSKESSVEPVSCPEKGLDIYLIIGICGGGSLLMVFVALLVFYITKRKKQRSRRNDEELETRAHRVATEERGRKPHQIPASTPQNPATSQHPPPPPGHRSQAPSHRPPHPGHRVQHQPQKRPPAPSGTQVHQQKGPPLPRPRVQPKPPHGAAENSLSPSSN [P299H],decreasing interaction strength
5,MSFPCKFVASFLLIFNVSSKGAVSKEITNALETWGALGQDINLDIPSFQMSDDIDDIKWEKTSDKKKIAQFRKEKETFKEKDTYKLFKNGTLKIKHLKTDDQDIYKVSIYDTKGKNVLEKIFDLKIQERVSKPKISWTCINTTLTCEVMNGTDPELNLYQDGKHLKLSQRVITHKWTTSLSAKFKCTAGNKVSKESSVEPVSCPEKGLDIYLIIGICGGGSLLMVFVALLVFYITKRKKQRSRRNDEELETRAHRVATEERGRKPHQIPASTPQNPATSQHPPPPPGHRSQAPSHRPPIPGHRVQHQPQKRPPAPSGTQVHQQKGPPLPRPRVQPKPPHGAAENSLSPSSN [P299I],decreasing interaction strength
6,MSFPCKFVASFLLIFNVSSKGAVSKEITNALETWGALGQDINLDIPSFQMSDDIDDIKWEKTSDKKKIAQFRKEKETFKEKDTYKLFKNGTLKIKHLKTDDQDIYKVSIYDTKGKNVLEKIFDLKIQERVSKPKISWTCINTTLTCEVMNGTDPELNLYQDGKHLKLSQRVITHKWTTSLSAKFKCTAGNKVSKESSVEPVSCPEKGLDIYLIIGICGGGSLLMVFVALLVFYITKRKKQRSRRNDEELETRAHRVATEERGRKPHQIPASTPQNPATSQHPPPPPGHRSQAPSHRPPQPGHRVQHQPQKRPPAPSGTQVHQQKGPPLPRPRVQPKPPHGAAENSLSPSSN [P299Q],disrupting interaction strength
7,MSFPCKFVASFLLIFNVSSKGAVSKEITNALETWGALGQDINLDIPSFQMSDDIDDIKWEKTSDKKKIAQFRKEKETFKEKDTYKLFKNGTLKIKHLKTDDQDIYKVSIYDTKGKNVLEKIFDLKIQERVSKPKISWTCINTTLTCEVMNGTDPELNLYQDGKHLKLSQRVITHKWTTSLSAKFKCTAGNKVSKESSVEPVSCPEKGLDIYLIIGICGGGSLLMVFVALLVFYITKRKKQRSRRNDEELETRAHRVATEERGRKPHQIPASTPQNPATSQHPPPPPGHRSQAPSHRPPEPGHRVQHQPQKRPPAPSGTQVHQQKGPPLPRPRVQPKPPHGAAENSLSPSSN [P299E],disrupting interaction strength
8,MSFPCKFVASFLLIFNVSSKGAVSKEITNALETWGALGQDINLDIPSFQMSDDIDDIKWEKTSDKKKIAQFRKEKETFKEKDTYKLFKNGTLKIKHLKTDDQDIYKVSIYDTKGKNVLEKIFDLKIQERVSKPKISWTCINTTLTCEVMNGTDPELNLYQDGKHLKLSQRVITHKWTTSLSAKFKCTAGNKVSKESSVEPVSCPEKGLDIYLIIGICGGGSLLMVFVALLVFYITKRKKQRSRRNDEELETRAHRVATEERGRKPHQIPASTPQNPATSQHPPPPPGHRSQAPSHRPPDPGHRVQHQPQKRPPAPSGTQVHQQKGPPLPRPRVQPKPPHGAAENSLSPSSN [P299D],disrupting interaction strength
9,MSFPCKFVASFLLIFNVSSKGAVSKEITNALETWGALGQDINLDIPSFQMSDDIDDIKWEKTSDKKKIAQFRKEKETFKEKDTYKLFKNGTLKIKHLKTDDQDIYKVSIYDTKGKNVLEKIFDLKIQERVSKPKISWTCINTTLTCEVMNGTDPELNLYQDGKHLKLSQRVITHKWTTSLSAKFKCTAGNKVSKESSVEPVSCPEKGLDIYLIIGICGGGSLLMVFVALLVFYITKRKKQRSRRNDEELETRAHRVATEERGRKPHQIPASTPQNPATSQHPPPPPGHRSQAPSHRPPLPGHRVQHQPQKRPPAPSGTQVHQQKGPPLPRPRVQPKPPHGAAENSLSPSSN [P299L],disrupting interaction strength
10,MSFPCKFVASFLLIFNVSSKGAVSKEITNALETWGALGQDINLDIPSFQMSDDIDDIKWEKTSDKKKIAQFRKEKETFKEKDTYKLFKNGTLKIKHLKTDDQDIYKVSIYDTKGKNVLEKIFDLKIQERVSKPKISWTCINTTLTCEVMNGTDPELNLYQDGKHLKLSQRVITHKWTTSLSAKFKCTAGNKVSKESSVEPVSCPEKGLDIYLIIGICGGGSLLMVFVALLVFYITKRKKQRSRRNDEELETRAHRVATEERGRKPHQIPASTPQNPATSQHPPPPPGHRSQAPSHRPPFPGHRVQHQPQKRPPAPSGTQVHQQKGPPLPRPRVQPKPPHGAAENSLSPSSN [P299F],decreasing interaction strength
11,MSFPCKFVASFLLIFNVSSKGAVSKEITNALETWGALGQDINLDIPSFQMSDDIDDIKWEKTSDKKKIAQFRKEKETFKEKDTYKLFKNGTLKIKHLKTDDQDIYKVSIYDTKGKNVLEKIFDLKIQERVSKPKISWTCINTTLTCEVMNGTDPELNLYQDGKHLKLSQRVITHKWTTSLSAKFKCTAGNKVSKESSVEPVSCPEKGLDIYLIIGICGGGSLLMVFVALLVFYITKRKKQRSRRNDEELETRAHRVATEERGRKPHQIPASTPQNPATSQHPPPPPGHRSQAPSHRPPKPGHRVQHQPQKRPPAPSGTQVHQQKGPPLPRPRVQPKPPHGAAENSLSPSSN [P299K],decreasing interaction strength

# Continued, values first:
row,effect of a mutation on the interaction,Variant
1,decreasing interaction strength,MSFPCKFVASFLLIFNVSSKGAVSKEITNALETWGALGQDINLDIPSFQMSDDIDDIKWEKTSDKKKIAQFRKEKETFKEKDTYKLFKNGTLKIKHLKTDDQDIYKVSIYDTKGKNVLEKIFDLKIQERVSKPKISWTCINTTLTCEVMNGTDPELNLYQDGKHLKLSQRVITHKWTTSLSAKFKCTAGNKVSKESSVEPVSCPEKGLDIYLIIGICGGGSLLMVFVALLVFYITKRKKQRSRRNDEELETRAHRVATEERGRKPHQIPASTPQNPATSQHPPPPPGHRSQAPSHRPPPCGHRVQHQPQKRPPAPSGTQVHQQKGPPLPRPRVQPKPPHGAAENSLSPSSN [P300C]
2,disrupting interaction strength,MSFPCKFVASFLLIFNVSSKGAVSKEITNALETWGALGQDINLDIPSFQMSDDIDDIKWEKTSDKKKIAQFRKEKETFKEKDTYKLFKNGTLKIKHLKTDDQDIYKVSIYDTKGKNVLEKIFDLKIQERVSKPKISWTCINTTLTCEVMNGTDPELNLYQDGKHLKLSQRVITHKWTTSLSAKFKCTAGNKVSKESSVEPVSCPEKGLDIYLIIGICGGGSLLMVFVALLVFYITKRKKQRSRRNDEELETRAHRVATEERGRKPHQIPASTPQNPATSQHPPPPPGHRSQAPSHRPPPAGHRVQHQPQKRPPAPSGTQVHQQKGPPLPRPRVQPKPPHGAAENSLSPSSN [P300A]
3,disrupting interaction strength,MSFPCKFVASFLLIFNVSSKGAVSKEITNALETWGALGQDINLDIPSFQMSDDIDDIKWEKTSDKKKIAQFRKEKETFKEKDTYKLFKNGTLKIKHLKTDDQDIYKVSIYDTKGKNVLEKIFDLKIQERVSKPKISWTCINTTLTCEVMNGTDPELNLYQDGKHLKLSQRVITHKWTTSLSAKFKCTAGNKVSKESSVEPVSCPEKGLDIYLIIGICGGGSLLMVFVALLVFYITKRKKQRSRRNDEELETRAHRVATEERGRKPHQIPASTPQNPATSQHPPPPPGHRSQAPSHRPPYPGHRVQHQPQKRPPAPSGTQVHQQKGPPLPRPRVQPKPPHGAAENSLSPSSN [P299Y]
4,disrupting interaction strength,MSFPCKFVASFLLIFNVSSKGAVSKEITNALETWGALGQDINLDIPSFQMSDDIDDIKWEKTSDKKKIAQFRKEKETFKEKDTYKLFKNGTLKIKHLKTDDQDIYKVSIYDTKGKNVLEKIFDLKIQERVSKPKISWTCINTTLTCEVMNGTDPELNLYQDGKHLKLSQRVITHKWTTSLSAKFKCTAGNKVSKESSVEPVSCPEKGLDIYLIIGICGGGSLLMVFVALLVFYITKRKKQRSRRNDEELETRAHRVATEERGRKPHQIPASTPQNPATSQHPPPPPGHRSQAPSHRPPVPGHRVQHQPQKRPPAPSGTQVHQQKGPPLPRPRVQPKPPHGAAENSLSPSSN [P299V]
5,disrupting interaction strength,MSFPCKFVASFLLIFNVSSKGAVSKEITNALETWGALGQDINLDIPSFQMSDDIDDIKWEKTSDKKKIAQFRKEKETFKEKDTYKLFKNGTLKIKHLKTDDQDIYKVSIYDTKGKNVLEKIFDLKIQERVSKPKISWTCINTTLTCEVMNGTDPELNLYQDGKHLKLSQRVITHKWTTSLSAKFKCTAGNKVSKESSVEPVSCPEKGLDIYLIIGICGGGSLLMVFVALLVFYITKRKKQRSRRNDEELETRAHRVATEERGRKPHQIPASTPQNPATSQHPPPPPGHRSQAPSHRPPTPGHRVQHQPQKRPPAPSGTQVHQQKGPPLPRPRVQPKPPHGAAENSLSPSSN [P299T]
